Source: US20240059757A1 (VIR BIOTECHNOLOGY, published 2024)
Read-outs that look alike come from different tables or passages of the source.

How the values were obtained:
[1] = biological target: T1, SARS-CoV-2 RBD (residues 331-550 of spike from BetaCoV/Wuhan-Hu-1/2019, accession number MN908947) (SARS-CoV-2 Wuhan-Hu-1, UniProt P0DTC2 331-550); experiment: ELISA
[2] = biological target: T2, SARS-CoV RBD (Sino Biological) (SARS-CoV, UniProt P59594 306-527); experiment: ELISA
[3] = biological target: T1, SARS-CoV-2 RBD (residues 331-550 of …); experiment: BLI
[4] = biological target: T2, SARS-CoV RBD (Sino Biological); experiment: BLI
SARS-CoV Spike protein = SARS-CoV Spike protein (SARS-CoV, UniProt P59594 14-1255); experiment: cell-based or functional assay
SARS-CoV-2 Spike protein [5] = biological target: T3, SARS-CoV-2 Spike protein (SARS-CoV-2 Wuhan-Hu-1, UniProt P0DTC2 14-1273); experiment: cell-based or functional assay
SARS-CoV-2 Spike protein [6] = biological target: T3, SARS-CoV-2 Spike protein; experiment: cell-based or functional assay; remark: listed apart in the source
[7] = biological target: T1, SARS-CoV-2 RBD (residues 331-550 of …); experiment: BLI (Octet): antibody on Protein A pins, SARS-CoV-2 RBD at 6, 1.5 and 0.4 µg/ml
[8] = biological target: T4, SARS-CoV-2 RBD-mouse Fc (Sino Biological) (SARS-CoV-2, UniProt P0DTC2 331-541)
[9] = biological target: T1, SARS-CoV-2 RBD (residues 331-550 of …); experiment: BLI (Octet): antibody on Protein A pins, SARS-CoV-2 RBD at 6, 1.5 and 0.4 µg/ml; remark: listed apart in the source
SARS-CoV-2 Spike protein [10] = biological target: T3, SARS-CoV-2 Spike protein; experiment: cell-based or functional assay; remark: listed apart in the source
[11] = biological target: T4, SARS-CoV-2 RBD-mouse Fc (Sino …); remark: listed apart in the source
[12] = biological target: T2, SARS-CoV RBD (Sino Biological); experiment: ELISA; remark: listed apart in the source
[13] = biological target: T4, SARS-CoV-2 RBD-mouse Fc (Sino …); remark: listed apart in the source
SARS-CoV-2 Spike protein [14] = biological target: T3, SARS-CoV-2 Spike protein
[15] = biological target: T2, SARS-CoV RBD (Sino Biological)
[16] = biological target: T4, SARS-CoV-2 RBD-mouse Fc (Sino …); remark: listed apart in the source
SARS-CoV-2 Spike protein [17] = biological target: T3, SARS-CoV-2 Spike protein; experiment: cell-based or functional assay; remark: listed apart in the source
[18] = biological target: T1, SARS-CoV-2 RBD (residues 331-550 of …)
SARS-CoV-2 Spike protein [19] = biological target: T3, SARS-CoV-2 Spike protein; experiment: cell-based or functional assay; remark: listed apart in the source
SARS-CoV-2 Spike protein [20] = biological target: T3, SARS-CoV-2 Spike protein; remark: listed apart in the source

B1: S2D22 (antibody, V domains shown)
VH: EVHLVESGGGLVQPGGSLKLSCAASGFTFSGSAMHWVRQASGKGLEWVGRIRTKANTYATAYAASVKGRFTISRDDSKNTAYLQMNSLKTEDTAVYYCTRPAPYDFLSDYYTGEQLDYWGQGTLVTVSS
VL: QSVLTQPPSVSGAPGQRVTISCTGSSSNIGAGYDVHWYQQLPGAAPKLLIYGNSNRPSGVPDRFSGSKSGTSASLAITGLQAEDEADYYCQSYDSSLSGPEVFGTGTKVTVL
EC50 [1]: 0.0353 µg/mL | EC50 [2]: 0.0422 µg/mL | Kd [3]: 5.21 nM | Kd [4]: 53.5 nM | neutralization IC50 (SARS-CoV Spike protein): 3.63 µg/mL | neutralization IC50 (SARS-CoV-2 Spike protein [5]): 1.03 µg/mL | neutralization IC50 (SARS-CoV-2 Spike protein [6]): 0.865 µg/mL | neutralization IC80 (SARS-CoV-2 Spike protein [6]): 3.28 µg/mL | neutralization IC90 (SARS-CoV-2 Spike protein [6]): 7.16 µg/mL | neutralization IC95 (SARS-CoV-2 Spike protein [6]): 14.7 µg/mL

B2: S2X129 (antibody, V domains shown)
VH: EVQLVQSGAEVKKPGASVKVSCKASGYTFTDYFMHWVRQAPGQGLEWMGWISPNSGGTNYAQRFQGRVTMTRDTSISTTYMELSRLRSDDTAVYYCARDQAYIVLAQGSGMDVWGQGTTVTVSS
VL: DIVMTQTPSSVSASVGDRVTITCRASQGISSWLAWYQQKPGKAPKLLISAASSLQSGVPSRFSGSGSGTDFTLTISTLQPEDFATYYCQQANSFPLAFGPGTKVDIK
Kd [7]: 0.857 nM | IC50 [8]: 0.0214 µg/mL

B3: S2X127 (antibody, V domains shown)
VH: EVQLVESGGGLIQPGGSLRLSCAASGLTVRSNYMSWVRQAPGKGLEWVSVMYSGGSTFYADSVKGRSTISRDNSKNTLYLQMNSLRAEDTAVYYCARGDIADDYHYGLDVWGQGTTVTVSS
VL: QSVLTQPPSVSGAPGQRVTISCTGSTSNIGAGYNVHWYQHFPGTSPKLLIYGNSNRPSGVPDRFSGSKSGTSASLAITGLQAEDEAAYYCQSYDSNLSGVFGGGTKLTVL
Kd [9]: < 0.001 nM | IC50 [8]: 0.0102 µg/mL

B4: S2H7 (antibody, V domains shown)
VH: EVQLVESGGGLVQPGGSLRLSCAASGFIVSSNYMSWVRQAPGKGLEWVSVIYSGGSTYYADSVKGRFTISRDNSKNTLYLQMNSLRAEDTSVYYCARDRQYSGSPSFDYWGQGTLVTVSS
VL: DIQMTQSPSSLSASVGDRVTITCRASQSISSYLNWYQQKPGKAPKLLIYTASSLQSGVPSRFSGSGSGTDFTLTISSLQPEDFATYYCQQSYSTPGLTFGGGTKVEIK
neutralization IC50 (SARS-CoV-2 Spike protein [10]): 0.195 µg/mL

B5: S2H14 (antibody, V domains shown)
VH: not shown
VL: NFMLTQPHSVSESPGKTVTISCTRSSGSIASNYVQWYQQRPGSSPTTVIYEDNQRPSGVPDRFSGSIDSSSNSASLTISGLKTEDEADYYCQSYDSSNQVFGGGTKLTVL
neutralization IC50 (SARS-CoV-2 Spike protein [10]): 0.847 µg/mL

B6: S2D8 (antibody, V domains shown)
VH: EVQLLESGGGLVQPGGSLRLSCAASGFTFTTYAMSWVRQAPGKGLEWVSGISGSGGNTYHADSVKGRFTISRDNSKSTLYLQMNSLRAEDTAVYYCAKDLWFREILHGMDVWGEGTTVTVSS
VL: QSALTQPASVSGSPGQSITISCTGTSSDIGGYNYVSWYQHHPGKAPKIMIYEVTNRPSGVSNRFSGSKSGNTASLTISGLQAEDEADYYCSSYTSSNTYVFGTGTKVTVL
IC50 (read off the curve) [11]: ~0.03 µg/mL | binding result [12]: no binding | neutralization IC50 (SARS-CoV-2 Spike protein [6]): 0.03 µg/mL | neutralization IC80 (SARS-CoV-2 Spike protein [6]): 0.058 µg/mL | neutralization IC90 (SARS-CoV-2 Spike protein [6]): 0.087 µg/mL | neutralization IC95 (SARS-CoV-2 Spike protein [6]): 0.125 µg/mL

B7: S2D25 (antibody, V domains shown)
VH: EVQLVESGGGLVQPGGSLRLSCAASGFPFNIYAMSWVRQAPGKGLEWVSGISGSGGSTYYADSVRGRFAISRDNSKNTLYLQMNSLRAEDTAEYYCAKDLWFREILHGMDVWGKGTTVTVSS
VL: QSALTQPASVSGSPGQSITISCTGTSSDVGGYNYVSWYQHHPGRAPKLMIYEVSNRPSGVSNRFSGSKSGNTASLSISGLQAEDEADYYCSSYTSSSTYVFGAGTKVTVL
IC50 (read off the curve) [13]: ~0.03 µg/mL | binding result [12]: no binding | neutralization IC50 (SARS-CoV-2 Spike protein [6]): 0.04 µg/mL | neutralization IC80 (SARS-CoV-2 Spike protein [6]): 0.091 µg/mL | neutralization IC90 (SARS-CoV-2 Spike protein [6]): 0.146 µg/mL | neutralization IC95 (SARS-CoV-2 Spike protein [6]): 0.228 µg/mL

B8: S2A15 v1 (antibody, V domains shown)
VH: QVQLQESGPGLVKPSGTLSLTCAVSGGSISSSNWWSWVRQPPGKGLEWIGEIYHSGNTNYNPSLKSRVTISVDKSKNQFSLKLTSVTAADTAVYYCASRYCSSTSCPNWFDPWGQGTLVTVSS
VL: QSALTQPASVSGSPGQSITISCTGTSSDVGSYNLVSWYQQHPGKAPKFMIYEGSKRPSGVSNRFSGSKSGNTASLTISGLQAEDEADYYCCSYAGSSTWVFGGGTKLTVL
EC50 (SARS-CoV-2 Spike protein [14]): 0.656 µg/mL

B9: S2A15 v2 (antibody, V domains shown)
VH: QITLKESGPGLVKPSGTLSLTCAVSGGSISSSNWWSWVRQPPGKGLEWIGEIYHSGNTNYNPSLKSRVTISVDKSKNQFSLKLTSVTAADTAVYYCASRYCSSTSCPNWFDPWGQGTLVTVSS
VL: QSALTQPASVSGSPGQSITISCTGTSSDVGSYNLVSWYQQHPGKAPKFMIYEGSKRPSGVSNRFSGSKSGNTASLTISGLQAEDEADYYCCSYAGSSTWVFGGGTKLTVL
EC50 (SARS-CoV-2 Spike protein [14]): 0.335 µg/mL

B10: S2X227 (antibody, V domains shown)
VH: EVQLVQSGAEVKKPGASVKVSCKASGYTFTSYYMHWVRQAPGQGLEWMGIINPGGVSTTYAHYAQKFQGRVTMTRDTSTSTVYMELSSLRSEDTAVYYCARSIAVFWGDAFDIWGQGTMVTVSS
VL: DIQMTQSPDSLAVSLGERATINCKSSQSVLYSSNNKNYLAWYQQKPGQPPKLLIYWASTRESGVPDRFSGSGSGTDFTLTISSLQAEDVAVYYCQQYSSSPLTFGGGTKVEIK
EC50 [15]: 1.35 µg/mL | IC50 [16]: 0.0274 µg/mL | neutralization IC50 (SARS-CoV-2 Spike protein [17]): 0.00445 µg/mL | EC50 [18]: 0.00109 µg/mL | neutralization EC50 (interpolated) (SARS-CoV-2 Spike protein [19]): 0.0053 µg/mL

B11: S2A4 (antibody, V domains shown)
VH: EVQLVESGGGLVQPGGSLRLSCAASGFTFSSYWMNWVRQAPGKGLEWVANIKQDGSEKYYVDSVKGRFTISRDNAKNSLFLQMNSLRAEDTAVYYCARVWWLRGSFDYWGQGTLVTVSS
VL: NFMLTQPHSVSESPGKTVTISCTGSSGSIASNYVQWYQQRPGSAPTTVIYEDNQRPSGVPDRFSGSIDSSSNSASLTISGLKTEDEADYYCQSYDSSNHVVFGGGTKLTVL
neutralization IC50 (SARS-CoV-2 Spike protein [10]): 3.45 µg/mL | IC50 (read off the curve) [11]: ~0.06 µg/mL

B12: S2D32 (antibody, V domains shown)
VH: EVQLVESGGGLVQPGRSLRLSCTSSGFTFGDYPMSWFRQAPGKGLEWVGFIRSKAYGGTTQYAASVKGRFTISRDDSKNIAYLQMNSLKTEDTAVYYCTREMWDCSGGRCYSPFFDYWGQGTLVTVSS
VL: EIVMTQSPATLSVSPGERATLSCRASQTVSSNLAWYQQKPGQAPRLLIYGASTRATGIPARFSGSGSGTEFTLTISSLQSEDFAVYYCQQYNNWRTFGQGTKLEIK
IC50 (read off the curve) [13]: ~0.03 µg/mL | binding result [12]: no binding | neutralization IC50 (SARS-CoV-2 Spike protein [6]): 0.036 µg/mL | neutralization IC80 (SARS-CoV-2 Spike protein [6]): 0.081 µg/mL | neutralization IC90 (SARS-CoV-2 Spike protein [6]): 0.129 µg/mL | neutralization IC95 (SARS-CoV-2 Spike protein [6]): 0.2 µg/mL

B13: S2B2 v1 (antibody, V domains shown)
VH: QVQLVESGGGVVQPGRSLRLSCAASGFTFSNFGMHWVRQAPGKGLEWVAVISYDGNNKFYADSVKGRFTISRDNSKNTLYLQMNSLRAEDTAVYYCAKPTVSFGVVIDAFDIWGQGTMVTVSS
VL: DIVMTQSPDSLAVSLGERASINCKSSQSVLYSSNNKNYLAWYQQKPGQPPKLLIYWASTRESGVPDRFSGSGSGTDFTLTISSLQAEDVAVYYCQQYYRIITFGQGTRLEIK
EC50 (SARS-CoV-2 Spike protein [20]): 0.0107 µg/mL

B14: S2B2 v2 (antibody, V domains shown)
VH: EVQLVESGGGVVQPGRSLRLSCAASGFTFSNFGMHWVRQAPGKGLEWVAVISYDGNNKFYADSVKGRFTISRDNSKNTLYLQMNSLRAEDTAVYYCSKPTVSFGVVIDAFDIWGQGTMVTVSS
VL: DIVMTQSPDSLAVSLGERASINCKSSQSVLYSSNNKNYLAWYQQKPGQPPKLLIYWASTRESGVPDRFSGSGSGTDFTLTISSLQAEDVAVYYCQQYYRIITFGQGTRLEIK
EC50 (SARS-CoV-2 Spike protein [20]): 0.00812 µg/mL
